Laboratory results from patent US20240100162A1 (published 2024).

Assays:
Test in all cases: killing
[1] = molecular target: T1, MAGE-B2 peptide, D4W peptide on HLA-A*02:01 (human)
T1 peptide: GVYWGEEHSV

[2] = molecular target: T2, MAGE-B2 peptide, G1D peptide on HLA-A*02:01 (human)
T2 peptide: DVYDGEEHSV

[3] = molecular target: T3, MAGE-B2 peptide, G1Q peptide on HLA-A*02:01 (human)
T3 peptide: QVYDGEEHSV

[4] = molecular target: T4, MAGE-B2 peptide, G5R peptide on HLA-A*02:01 (human)
T4 peptide: GVYDREEHSV

[5] = molecular target: T5, MAGE-B2 peptide, V2S peptide on HLA-A*02:01 (human)
T5 peptide: GSYDGEEHSV

[6] = molecular target: T6, MAGE-B2 peptide, V10M peptide on HLA-A*02:01 (human)
T6 peptide: GVYDGEEHSM

[7] = molecular target: T7, MAGE-B2 peptide, G1Y peptide on HLA-A*02:01 (human)
T7 peptide: YVYDGEEHSV

[8] = molecular target: T8, MAGE-B2 peptide, G1S peptide on HLA-A*02:01 (human)
T8 peptide: SVYDGEEHSV

[9] = molecular target: T9, MAGE-B2 peptide, G1T peptide on HLA-A*02:01 (human)
T9 peptide: TVYDGEEHSV

[10] = molecular target: T10, MAGE-B2 peptide, G5M peptide on HLA-A*02:01 (human)
T10 peptide: GVYDMEEHSV

[11] = molecular target: T11, MAGE-B2 peptide, G1F peptide on HLA-A*02:01 (human)
T11 peptide: FVYDGEEHSV

[12] = molecular target: T12, MAGE-B2 peptide, G5C peptide on HLA-A*02:01 (human)
T12 peptide: GVYDCEEHSV

[13] = molecular target: T13, MAGE-B2 peptide, V2G peptide on HLA-A*02:01 (human)
T13 peptide: GGYDGEEHSV

[14] = molecular target: T14, MAGE-B2 peptide, V2A peptide on HLA-A*02:01 (human)
T14 peptide: GAYDGEEHSV

[15] = molecular target: T15, MAGE-B2 peptide, D4E peptide on HLA-A*02:01 (human)
T15 peptide: GVYEGEEHSV

[16] = molecular target: T16, MAGE-B2 peptide, G1I peptide on HLA-A*02:01 (human)
T16 peptide: IVYDGEEHSV

[17] = molecular target: T17, MAGE-B2 peptide, G1L peptide on HLA-A*02:01 (human)
T17 peptide: LVYDGEEHSV

[18] = molecular target: T18, MAGE-B2 peptide, V2C peptide on HLA-A*02:01 (human)
T18 peptide: GCYDGEEHSV

[19] = molecular target: T19, MAGE-B2 peptide, G1P peptide on HLA-A*02:01 (human)
T19 peptide: PVYDGEEHSV

[20] = molecular target: T20, MAGE-B2 peptide, V10T peptide on HLA-A*02:01 (human)
T20 peptide: GVYDGEEHST

[21] = molecular target: T21, MAGE-B2 peptide, G5L peptide on HLA-A*02:01 (human)
T21 peptide: GVYDLEEHSV

[22] = molecular target: T22, MAGE-B2 peptide, G1M peptide on HLA-A*02:01 (human)
T22 peptide: MVYDGEEHSV

[23] = molecular target: T23, MAGE-B2 peptide, V10C peptide on HLA-A*02:01 (human)
T23 peptide: GVYDGEEHSC

[24] = molecular target: T24, MAGE-B2 peptide, G1E peptide on HLA-A*02:01 (human)
T24 peptide: EVYDGEEHSV

[25] = molecular target: T25, MAGE-B2 peptide, V10F peptide on HLA-A*02:01 (human)
T25 peptide: GVYDGEEHSF

[26] = molecular target: T26, MAGE-B2 peptide, G1V peptide on HLA-A*02:01 (human)
T26 peptide: VVYDGEEHSV

[27] = molecular target: T27, MAGE-B2 peptide, G1N peptide on HLA-A*02:01 (human)
T27 peptide: NVYDGEEHSV

[28] = molecular target: T28, MAGE-B2 peptide, E6D peptide on HLA-A*02:01 (human)
T28 peptide: GVYDGDEHSV

[29] = molecular target: T29, MAGE-B2 peptide, E6N peptide on HLA-A*02:01 (human)
T29 peptide: GVYDGNEHSV

[30] = molecular target: T30, MAGE-B2 peptide, G5A peptide on HLA-A*02:01 (human)
T30 peptide: GVYDAEEHSV

[31] = molecular target: T31, MAGE-B2 peptide, E6Y peptide on HLA-A*02:01 (human)
T31 peptide: GVYDGYEHSV

[32] = molecular target: T32, MAGE-B2 peptide, V10Y peptide on HLA-A*02:01 (human)
T32 peptide: GVYDGEEHSY

[33] = molecular target: T33, MAGE-B2 peptide, E7R peptide on HLA-A*02:01 (human)
T33 peptide: GVYDGERHSV

[34] = molecular target: T34, MAGE-B2 peptide, E6P peptide on HLA-A*02:01 (human)
T34 peptide: GVYDGPEHSV

[35] = molecular target: T35, MAGE-B2 peptide, E6L peptide on HLA-A*02:01 (human)
T35 peptide: GVYDGLEHSV

[36] = molecular target: T36, MAGE-B2 peptide, E6R peptide on HLA-A*02:01 (human)
T36 peptide: GVYDGREHSV

[37] = molecular target: T37, MAGE-B2 peptide, E7G peptide on HLA-A*02:01 (human)
T37 peptide: GVYDGEGHSV

[38] = molecular target: T38, MAGE-B2 peptide, E6K peptide on HLA-A*02:01 (human)
T38 peptide: GVYDGKEHSV

[39] = molecular target: T39, MAGE-B2 peptide, E6A peptide on HLA-A*02:01 (human)
T39 peptide: GVYDGAEHSV

Measured: binding result

B1: TCR1 (TCR, V domains shown)
Valpha: KQEVTQIPAALSVPEGENLVLNCSFTDSAIYNLQWFRQDPGKGLTSLLLIQSSQREQTSGRLNASLDKSSGRSTLYIAASQPGDSATYLCAAMKTSYDKVIFGPGTSLSVIP
Vbeta: GEEVAQTPKHLVRGEGQKAKLYCAPIKGHSYVFWYQQVLKNEFKFLISFQNENVFDETGMPKERFSAKCLPNSPCSLEIQATKLEDSAVYFCASSQGQGGYGYTFGSGTRLTVV
recognises: [1] | [2] | [3] | [4] | [5] | [6] | [7] | [8] | [9] | [10] | [11] | [12] | [13] | [14] | [15] | [16] | [17] | [18] | [19] | [20] | [21] | [22] | [23] | [24] | [25] | [26] | [27]

B2: TCR2 (TCR, V domains shown)
Valpha: QKEVEQNSGPLSVPEGAIASLNCTYSDRGSQSFFWYRQYSGKSPELIMSIYSNGDKEDGRFTAQLNKASQYVSLLIRDSQPSDSATYLCAVNIPFSNSGGYQKVTFGTGTKLQVIP
Vbeta: NAGVTQTPKFRVLKTGQSMTLLCAQDMNHEYMYWYRQDPGMGLRLIHYSVGEGTTAKGEVPDGYNVSRLKKQNFLLGLESAAPSQTSVYFCASRHPGQYNQPQHFGDGTRLSIL
recognises: [28] | [29]

B3: TCR3 (TCR, V domains shown)
Valpha: AQKVTQAQTEISVVEKEDVTLDCVYETRDTTYYLFWYKQPPSGELVFLIRRNSFDEQNEISGRYSWNFQKSTSSFNFTITASQVVDSAVYFCALSVLRMDSSYKLIFGSGTRLLVRP
Vbeta: NAGVTQTPKFRVLKTGQSMTLLCAQDMNHEYMYWYRQDPGMGLRLIHYSVGEGTTAKGEVPDGYNVSRLKKQNFLLGLESAAPSQTSVYFCASSLQGAGQPQHFGDGTRLSIL
recognises: [30] | [31] | [32] | [33] | [34] | [35] | [36] | [37] | [38] | [39]
